In publication PMC10075959:

Target: FL-N nucleocapsid protein (SARS-CoV-2, UniProt P0DTC9 1-419)
Experiment: sedimentation velocity AUC
Details: protein: commercial; chain copies: 2; single strand

Binder: TTTTTTTTTT (ssDNA) [T10]
- binding result: binds
